B1: JRFL rgp120 (natural protein)
chain: not shown

Experiments:
Assay in all cases: SPR
JRFL rgp120 = biological target: B1
CN54 rgp120 = CN54 rgp120 (HIV-1 CN54 (CRF07_BC))
VRC01 = biological target: VRC01
b12 = biological target: b12

Binder	koff (JRFL rgp120) [s⁻¹]	koff (CN54 rgp120) [s⁻¹]	Kd (VRC01) [nM]	koff (VRC01) [s⁻¹]	Kd (b12) [nM]	koff (b12) [s⁻¹]
Y498 IgG1 (antibody, V domains shown) VH: KVQLVQSGTELKKPGASGKVSCKASGYTFNSNGLNWVRQAPGQGLEWVGWISGHSDETKHAQNFQGRLTLTTDTSTNTAYMELRSLRSDDTAVYYCARSLLRSLERLMGGTDAFDIWGQGTLVTVSS VL: not shown	0.000105	2.3e-05	–	–	–	–
B1	–	–	5.35	0.000167	1.11	0.000567

Reference: article PMC5609902 (2017)
